Measured values published in PMC12473205, “Characterization of the Soybean GPAT Gene Family Identifies GmGPAT1 as a Key Protein in Salt Stress Tolerance” (Plants, 2025).

Substrate: O=P(O)(O)OC[C@H](O)CO
Experiment: purified protein
Assay type: biochemical, Glycine max
Settings: 0.1 M phosphate buffer pH 7.2, acyl-CoA co-substrate not named, methods text mentions membrane protein, conclusions print 36.5 mmol L^-1

B1: GmGPAT1 (Glycine max) (protein)
chain: MSTTGSSAYHCVAHLPNNKTMFMLSTPPTTTFFATPRVLPFLSSKLSSSSSSSTASSSPCCSSITPKVKSKDNNNCYLVSAKHSPANMSASVSSRTFLNARNEQELLAGIRKEVEAGSLPANVAAGMEEVYNNYKSAVIQSGDPKSKEIVLSNMIALLDRIFLDVTDPFVFQPHHKAKREPFDYYVFGQNYIRPLVDFKNSYVGNMPLFIEMEEKLKQGHNIILMSNHQTEADPAIIALLLETRLPYIAENMTYVAGDRVITDPLSKPFSIGRNLICVYSKKHMLDDPALVEMKRNANIRALKEMAMLLRSGSQIVWIAPSGGRDRPDPHTGEWAPAPFDTSSVDNMRRLVEHSGPPGHVYPLAILCHDIMPPPLKVEKEIGEKRIISFHGTGISVAPALSFSETTATSENPEKAKEVFTKALYDSVTEQYNVLKSAIHGKKGFEASTPVVSLSQSWK
  Km: 36.47 mM
